Test results reported in patent US20140037642A1 (Amgen, published 2014).
Where a chain is given by its changes, count along the chain named.

B1: L34H34 phage-displayed Fab (Fab, V domains shown)
VH: QVQLQQSGPGLVKPSGTLSLTCAVSGGSISSSNWWSWVRQPPGKGLEWIGEIYHSGSTNYNPSLKSRVTISVDKSKNQFSLKLSSVTPEDTAVYYCARDHGPFDYWGRGTLVTVSS
VL: not shown
B2: L50H50 phage-displayed Fab (Fab, V domains shown)
VH: QVQLQESGPGLVKPSETLSLTCTVSGGSIGNYDWSWIRQPPGKGLEWIGTIYSSGSTYYSPSLKSRLTISVDKSKNRFSLKLSSVTAADTAVYYCARARGYSSPFDPWGQGTLVTVSS
VL: ETTLTQSPGTLSLSPGERATLSCRASQTISSSHLAWYQQKPGQSPRLLIYGAGYRATGIPDRFSGSGSGTDFTLTISRLEPEDFAVYYCQHYGSSLRTFGQGTKVEIK
B3: L49H49 phage-displayed Fab (Fab, V domains shown)
VH: QVQLQQWGAGLLKPSETLSLTCAVYGGSFSGYYWSWIRQPPGKGLEWIGEINHSGSTNYNPSLKSRVTISVDTSKNQFSLKLSSVTAADTAVYYCARVGYSHGEEVLDVWGKGTTVTVSS
VL: NFMLTQPHSVSESPGKTVSISCTRNSGSIASNFVQWYQQRPGSAPTIVIYEDNQRPSAVPTRFSGSIDRSSNSASLTISGLTTEDEADYYCQSYDSANVIFGGGTKLTVL
B4: L30H30 phage-displayed Fab (Fab, V domains shown)
VH: QVQLQESGPGLVKPSGTLSLTCAVSGGSISSSNWWSWVRQPPGKGLEWIGEIYHSGSTNYNPSLKSRVTISVDKSKNQFSLKLSSVTAADTAVYYCARVSGYYYYGMDVWGQGTTVTVSS
VL: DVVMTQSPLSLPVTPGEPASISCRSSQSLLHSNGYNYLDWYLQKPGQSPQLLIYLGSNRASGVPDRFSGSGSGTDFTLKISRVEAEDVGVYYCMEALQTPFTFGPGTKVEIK
B5: L37H37 phage-displayed Fab (Fab, V domains shown)
VH: B4 VH with Q1E, Q5V, V38I, V99D, G101S, Y102S, Y103W
VL: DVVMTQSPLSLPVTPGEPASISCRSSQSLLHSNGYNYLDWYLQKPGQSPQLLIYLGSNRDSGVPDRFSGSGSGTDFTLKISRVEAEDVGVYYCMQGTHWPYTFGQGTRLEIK
B6: L38H38 phage-displayed Fab (Fab, V domains shown)
VH: EVQLVESGPGLVKPSETLSLTCAVSGGSISSSNWWSWVRQPPGKGLEWIGEIYHSGSTNYNPSLKSRVTISVDKSKNQFSLKLSSVTAADTAVYYCARSTWSLDYWGQGTLVTVSS
VL: not shown
B7: L29H29 phage-displayed Fab (Fab, V domains shown)
VH: QVQLQESGPGLVKPSETLSLTCAVSGGSISSSNWWSWVRQPPGKGLEWIGEIYHSGSTNYNPSLKSRVTISVDKSKNQFSLKLSSVTAADTAVYYCARVGSGWYVDYWGQGTLVTVSS
VL: not shown
B8: L7H7 phage-displayed Fab (Fab, V domains shown)
VH: B7 VH with E16G, V99F, G100W, S101D, G102Y, W103Y, Y104G, V105M, Y107V, L113T
VL: not shown
B9: L6H6 phage-displayed Fab (Fab, V domains shown)
VH: B7 VH with E16G, V99D, S101Q, G102L, W103D, Y104A, V105F, Y107I, L113M
VL: not shown
B10: L10H10 phage-displayed Fab (Fab, V domains shown)
VH: EVQLVESGPGLVKPSGTLSLTCAVSGGSISSSNWWSWVRQPPGKGLEWIGEIYHSGSTNYNPSLKSRVTISVDKSKNQFSLKLSSVTAADTAVYYCARDYDIFGMDVWGQGTTVTVSS
VL: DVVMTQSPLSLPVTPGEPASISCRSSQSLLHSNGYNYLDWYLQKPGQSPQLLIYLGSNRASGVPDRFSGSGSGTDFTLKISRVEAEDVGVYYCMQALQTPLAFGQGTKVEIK
B11: L3H3 phage-displayed Fab (Fab, V domains shown)
VH: B7 VH with E16G, R98K, V99N, G100L, S101A, G102A, W103G, Y104A, D106A
VL: not shown
B12: L39H39 phage-displayed Fab (Fab, V domains shown)
VH: B10 VH with D99L, Y100S, D101F, I102A, F103D, G104P, M105F, V107I, T113M
VL: not shown
B13: L28H28 phage-displayed Fab (Fab, V domains shown)
VH: QVQLQESGPGLVKPSETLSLTCTVSGGSIRNYYWSWIRQPPGKGLEWIGYISDSGNTNYNPSLKSRVTISVDTSKNQFSLKLTSVTATDTAAYFCARHRSSWAWYFDLWGRGTLVTVSS
VL: SYVLTQPPSVSVSPGQTASITCSGDKLGDKYVGWYQQKAGQAPVLVIYQDNKRPSGIPERFSGSNSGNTASLTISGTQAMDEADYYCQAWDSGTVFGGGTKLTVL
B14: L25H25 phage-displayed Fab (Fab, V domains shown)
VH: QVQLQESGPGLVKPSGTLSLTCAVSGGSISSSNWWSWVRQPPGKGLEWIGEIYHSGSTNYNPSLKSRVTISVDKSKNQFSLKLSSVTAADTAVYYCASSGYDAFDIWGQGTTVTVSS
VL: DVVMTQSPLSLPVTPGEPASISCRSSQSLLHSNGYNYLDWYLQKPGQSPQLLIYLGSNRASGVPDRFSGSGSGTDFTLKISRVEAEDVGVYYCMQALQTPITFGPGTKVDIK
B15: L32H32 phage-displayed Fab (Fab, V domains shown)
VH: B14 VH with S98R, S99A, G100S, Y101V, T112M
VL: not shown
B16: L27H27 phage-displayed Fab (Fab, V domains shown)
VH: EVQLVQSGGGVVQPGTSLRLSCAASGFSFRSHGMHWVRQAPGKGLEWVAVISYDGSNKYYADSVKGRFTISRDNSKNTLYLQMNSLRAEDTAVYYCATIGPGGFDYWGQGTLVTVSS
VL: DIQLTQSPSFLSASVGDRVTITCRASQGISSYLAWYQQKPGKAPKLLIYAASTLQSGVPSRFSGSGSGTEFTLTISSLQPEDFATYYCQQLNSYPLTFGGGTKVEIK
B17: L36H36 phage-displayed Fab (Fab, V domains shown)
VH: QVQLQQWGAGLLKPSETLSLTCAVYGGSFSGYYWSWIRQPPGKGLEWIGEINHSGSTNYNPSLKSRVTISVDTSKNQFSLKLSSVTAADTAVYYCARVGYSSGRDVDYWGQGTLVTVSS
VL: NFMLTQPHSVSESPGKTVTISCTRSSGSIASNYVQWYQQRPGSSPTTVIYEDNQRPSGVPDRFSGSIDSSSNSASLTISGLKTEDEADYYCQSYDSSNVVFGGGTKLTVL
B18: L40H40 phage-displayed Fab (Fab, V domains shown)
VH: QVQLVQSGAEVKKPGSSVKVSCKASGGTFSSYAISWVRQAPGQGLEWMGRIIPILGIANYAQKFQGRVTITADKSTSTAYMELSSLRSEDTAVYYCAYGSGSYYDYYYMDVWGKGTTVTVSS
VL: ETTLTQSPATLSLSPGQRATLSCRASQSVYNYLAWYQQKPGQAPRLLIYDASRRATGIPARFSGSGSGTDFTLTISSLEPEDFAVYYCQQRNNWPLTFGGGTKVEIK
B19: L31H31 phage-displayed Fab (Fab, V domains shown)
VH: EVQLVQSGGGVVQPGRSLRLSCAASGFTFSSYGMHWVRQAPGKGLEWVAVISYDGSNKYYADSVKGRFTISRDNSKNTLYLQMNSLRAEDTAVYYCAKAYSSGWYDYYGMDVWGQGTTVTVSS
VL: DIQLTQSPSSLSASVGDRVTITCRSSQGIGYFLNWYQQEPGKAPKILISAASTLQSGVPSRFSGSGSGTDFTLSINNLQPADFATYYCQQSHSPPYTFGQGTKVEIK
B20: L14H14 phage-displayed Fab (Fab, V domains shown)
VH: QVQLQESGPGLVKPSGTLSLTCAVSGGSISSSNWWSWVRQPPGKGLEWIGEIYHSGSTNYNPSLKSRVTISVDKSKNQFSLKLSSVTAADTAVYYCARGLGDSSGYILWGQGTMVTVSS
VL: not shown
B21: L15H15 phage-displayed Fab (Fab, V domains shown)
VH: B20 VH
VL: DVVMTQSPLSLPVTPGEPASISCRSSQSLLHSNGYNYLDWYLQKPGQSPQLLIYLGSYRASGVPDRFSASGSGTDFTLKISRVEAEDVGVYYCMQALQTPITFGQGTRLEIK
B22: L33H33 phage-displayed Fab (Fab, V domains shown)
VH: B20 VH
VL: EIVLTQSPLSLPVTPGEPASISCRSSQSLLHSNGYNYLDWYLQKPGQSPQLLMYLVSNRASGVPERFSGSGSGTDFTLKISRVEAEDVGVYYCMQTLQTPLSFGQGTKLEIK

Tests used:
hu INSR(ECD)-muIgG1Fc = target: T1, hu INSR(ECD)-muIgG1Fc (human; mouse, Glycosylated. 87% of the preparation was cleaved between the alpha and beta chains (RKRR site), which stay disulfide-linked. Dimer through the receptor and the murine Fc.); assay: phage Fab ELISA, plate coated with INSR-mFc at 5 µg/ml
T1 construct: 87% processed into α and β chains; also called INSR(ECD)-muFc; INSR-mFc
Experimental: (§1) In 96-well 2-ml deep-well blocks, 480 μl/well 2xYT-CG broth was inoculated with 20 μl of overnight cultures of the individual clones, then incubated at 37° C., 300 rpm for 3 hours. To each well, 50 μl of 1:3 diluted M13KO7 helper phage were added to infect the cells. The block was incubated at 37° C. without shaking for 30 minutes, and then shaken gently for another 30 minutes at 150 rpm. The block was centrifuged at 3600 rpm for 20 minutes to pellet the infected cells. The cell pellet in each well was suspended into 480 μl of 2xYT-CK (2xYT broth containing 100 μg/ml carbenicillin and 40 μg/ml kanamycin), and incubated at 30° C. overnight for about 20 hours. The cell debris was separated by centrifugation at 3600 rpm for 20 minutes. The rescued phage supernatant was used in the phage ELISA to check for IGF-1R-specific, INSR-cross reactive, or mouse Fc binding of individual clones.
(§2) The coated plates were washed 3× with 300 μl/well of PBS. The washed plates were blocked with 300 μl/well 2% MPBS at room temperature for one hour. Meanwhile, rescued phages of individual clones were pre-blocked by mixing 170 μl of rescued phage with 170 μl of 4% MPBS. The blocked plates were washed 5× with 300 μl/well TBST (TBS: 10 mM Tris-HCl, pH 7.5, 1 mM EDTA, 150 mM NaCl; Tween-20. 0.1%). 100 μl/well of pre-blocked phage dilutions were distributed to each set of coated plate, which were incubated at room temperature on a rocker for 90 minutes. The plates were washed 5× with 300 μl/well TBST. 100 μl/well of anti-M13-HRP in 2% MPBS (1:3000 dilution, catalog number 27-9421-01, Amersham Pharmacia Biotech) were distributed, and plates were incubated at room temperature on rocker for one hour. The plates were washed 5× with 300 μl/well TBST. 100 μl/well of the substrate 1-Step™ ABTS (Pierce Biotechnology, Rockford, Ill., catalog number 37615) were added. Plates were incubated for one hour. OD₄₀₅ was measured for signal detection.

[1] = target: T2, hu IGF-1R(ECD)-C3-muIgG1Fc (human; mouse, Glycosylated. 60% of the preparation was cleaved between the alpha and beta chains (RKRR, mature positions 708-711), which stay disulfide-linked; 40% was unprocessed. Dimer through the …); assay: phage Fab ELISA, plate coated with IGF-1R-C3-mFc at 5 µg/ml
T2 construct: 60% of the product was processed into α and β chains, 40% unprocessed; also called IGF-1R(ECD)-C3-muFc; IGF-1R-C3-muFc
Experimental: as §1, §2

Binder	binding result (hu INSR(ECD)-muIgG1Fc)	binding result [1]
B1	no binding	binds
B2	no binding	binds
B3	no binding	binds
B4	no binding	binds
B5	no binding	binds
B6	no binding	binds
B7	no binding	binds
B8	no binding	binds
B9	no binding	binds
B10	no binding	binds
B11	no binding	binds
B12	no binding	binds
B13	no binding	binds
B14	no binding	binds
B15	no binding	binds
B16	no binding	binds
B17	no binding	binds
B18	no binding	binds
B19	no binding	binds
B20	no binding	binds
B21	no binding	binds
B22	no binding	binds
